# Measured values from paper PMC8764033, “Single-molecule analysis of specificity and multivalency in binding of short linear substrate motifs to the APC/C” (Nature Communications, 2022).
# B1: Hsl1^Halo KEN & D: Hsl1 fragment (amino acids 667–872) with C-terminal HaloTag, JF549-labeled (protein)
# chain: QNSASKRSLYSLQSISKRSLNLNDLLVFDDPLPSKKPASENVNKSEPHSLESDSDFEILCDQILFGNALDRILEEEEDNEKERDTQRQRQNDTKSSADTFTISGVSTNKENEGPEYPTKIEKNQFNMSYKPSENMSGLSSFPIFEKENTLSSSYLEEQKPKRAALSDITNSFNKMNKQEGMRIEKKIQREQLQKKNDRPSPLKPIQ
# modifications: JF549 or JF646 dye covalently bound to the HaloTag; left off: HaloTag, C-terminal, kept | TAP, C-terminal, cleaved
# notes: Hsl1 fragment (amino acids 667–872) with C-terminal HaloTag, JF549-labeled
# How the values were obtained:
# APC/C^apo = molecular target: T1, APC/C^apo (Saccharomyces cerevisiae, UniProt P38042+P53068); experiment: SMOR assay, yeast APC/C^apo (no activator); format: binding; settings: Supplementary Table 1, single movie
# T1 construct: APC/C was purified from yeast cells; made in house; host or cells: S. cerevisiae W303 strain NHY13 (Cdc16-TAP, Apc1-GFP, cdh1 deleted)
# Method: Yeast strains were derivatives of W303 and are listed in Supplementary Table 2. For APC/C purification, we used a strain carrying Cdc16-TAP and lacking Cdh1 (DOM1126); in most experiments, the strain also carried Apc1-GFP (NHY13). Yeast were grown in YPD media to OD600 = 0.8, collected and flash-frozen. Cells were lysed by bead beating in lysis buffer A (50 mM HEPES pH 7.5, 150 mM KCl, 10% glycerol, 0.2% Triton X-100, 63 µM B-glycerophosphate, 48 µM sodium fluoride, 1 µg ml^−1 pepstatin A, 1 µg ml^−1 leupeptin, 1 µg ml^−1 aprotinin, 1 mM PMSF, 1 mM DTT, 0.5 mM EDTA) and APC/C was purified using magnetic IgG beads. The beads were washed using wash buffer A (20 mM HEPES pH 7.5, 150 mM KCl, 10% Glycerol, 0.05% Triton X-100). After incubation with purified Cdh1 or Cdc20, the APC/C was cleaved off the beads with TEV protease in wash buffer A with 0.05% Tween-20 (for single-molecule studies) or 0.05% Triton X-100 (for ensemble assays such as ubiquitylation) and used immediately. […]
# Microscopy was performed with a Nikon Eclipse TE2000-E with Perfect Focus with a 100 × 1.49na oil, Apo TIRF DIC N2, 0.13-0.2, WD0.12 objective. Movies were recorded using the Andor iXon DU-897E-CSO. […]
# APC/C = APC/C ubiquitylation assay; format: biochemical, yeast; settings: listed as Hsl1^Halo
# Method: APC/C ubiquitylation assays were performed as described previously. In short, APC/C was purified from yeast as described above using magnetic IgG beads and activated with a purified Cdh1 or Cdc20 activator. For all APC/C ubiquitylation assays, substrates were produced by in vitro translation with ^35S-Methionine (see Supplementary Table 5 for plasmids). Substrates were purified using magnetic IgG beads. E1 and E2 (Ubc4) were expressed in E. coli and purified as described previously[25],[42]. E2 was charged at 37 °C for 30 min (reaction contained 0.2 mg ml^−1 Uba1, 2 mg ml^−1 Ubc4, 2 mg ml^−1 methylated ubiquitin from Boston Biochem #Y-501, and 1 mM ATP). Charged E2 was added to a reaction containing activated APC/C and substrate. Reaction products were analyzed by SDS-PAGE and Phosphorimaging on a Typhoon 9400 Imager. […]
# APC/C^Cdh1 = experiment: Ensemble binding of radiolabeled Hsl1 fragments to APC/C^Cdh1 on magnetic beads; design: species or system yeast
# From the text: Supplementary Fig. 2: APC/C activity with tagged substrates a, Methods for analysis of APC/C activity and substrate binding. b, APC/C ubiquitylation assay with ra d io lab e le d f u ll-len g th yS e cu rin , co mpa rin g wild-type APC/CCdh1 an d AP C/ CCdh1 with a GFP ta g o n A p c1 . c, Comparison of activities with APC/CCdh1, using either wild-type Cdh1 or Cdh1 with the N-terminal 2XStrep-Tag II. d, Comparison of activities with APC/CCdh1 and the Hsl1 fragment (667-872) with and without the C-terminal Halo tag. e, Binding of radiolabeled Hsl1 fragments to yeast APC/CCdh1 immobilized on magnetic beads. First lane (Inp, input) indicates the amount of labeled protein added to the beads prior to washing, second lane (+) indicates amount bound, and third lane (-) indicates background binding in absence of APC/CCdh1. f, Ubiquitylation of Halo-tagged Hsl1 fragment with APC/CCdh1 an d A P C/ CCdc20. Experiments we re pe rfo rme d o n ce (b, c) or twice ( d-f). Source data are provided as a Source Dat a file.
# (1 picture or pasted object on this page, not shown here)
molecule,measurement,setting,value
B1,Dwell Time (in words),APC/C^apo,no binding
same,ubiquitylation (in words),APC/C,HaloTag does not affect ubiquitylation or binding
same,binding to APC/C (in words),APC/C^Cdh1,HaloTag does not affect ubiquitylation or binding
